In US20240400703A1 (Genmab, published 2024):
Several values for one entry are separate records, joined by “and”; a condition that tells them apart may be missing. Equal entries are not always repeated.

How the values were obtained:
[1] = target: T1, human OX40 expressed on cells (human, UniProt P43489 29-277); assay: flow cytometry, activated human CD4+ T cells, donor 2
T1 construct: also called CD134; TNFRSF4
T1 sequence: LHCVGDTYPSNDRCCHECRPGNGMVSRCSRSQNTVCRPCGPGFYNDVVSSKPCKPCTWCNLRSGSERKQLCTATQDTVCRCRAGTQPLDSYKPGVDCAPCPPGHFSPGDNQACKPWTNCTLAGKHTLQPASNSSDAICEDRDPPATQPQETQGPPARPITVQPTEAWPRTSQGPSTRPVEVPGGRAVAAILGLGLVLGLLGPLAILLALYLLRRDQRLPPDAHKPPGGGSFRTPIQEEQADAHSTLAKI
Protocol: (§1) Healthy human donor PBMCs were purified essentially as described in Example 7. The cell concentration was adjusted to 2×10⁶ cells per mL (final concentration) in assay medium and plated in 6-well plates (Greiner, cat. no. 657160). PBMCs were stimulated with 0.3 μg/mL anti-CD3 ([…] Technologies, cat. no. 60011) and 0.5 μg/mL anti-CD28 antibodies (BioLegend, cat. no. 302934) and cultured for two days at 37° C., 5% CO₂. Next, the PBMCs were harvested, counted and brought to a concentration of 2×10⁶ cells per mL in FACS buffer 1 (DPBS with 2% heat-inactivated FBS and 2 mM ethylenediaminetetraacetic acid [EDTA]). […] After 60 min at RT, the cells were prepared for flow cytometric analyses. To this end, the cells were washed twice with 150 μL FACS buffer 1 and 30 μL/well cell-surface antibody mix (Table 9) in FACS buffer 1 containing antibody against human Fcγ antibody (Table 9) and fixable viability dye eFluor780 (1:1,500) was added. The staining procedures were carried out at 4° C. for 15-20 min protected from light. Stained cells were washed twice with 120-150 μL FACS buffer 1 (5 min, 460×g, RT) and resuspended in 60-100 μL FACS buffer 1 for direct flow cytometric analyses. Flow cytometric data were acquired on a FACSymphony A3 and analyzed with FlowJo software.

[2] = target: T1, human OX40 expressed on cells; assay: flow cytometry, activated human CD8+ T cells, donor 2
Protocol: as §1

[3] = target: T1, human OX40 expressed on cells; assay: flow cytometry, activated human CD8+ T cells, with 2 µg/mL sOX40L, n=3
Protocol: Stimulated PBMCs were pelleted, resuspended in FACS buffer 2 (DPBS with 2% heat-inactivated FBS [Sigma-Aldrich, cat. no. F7524] and 2 mM EDTA [Sigma-Aldrich, cat. no. 03690]), and seeded (100,000 cells/well) in round-bottom 96-well plates (VWR International GmbH, cat. no. 734-197). […] Next, cells were washed twice in FACS buffer, and incubated with 30 μL of the antibody panel described in Table 11 diluted in FACS buffer 2 containing 1:1,500 Fixable Viability Stain eFluor 780 at 4° C. for 20 min, protected from light. The cells were subsequently washed twice with 120-150 μL FACS buffer 2 and measured on a BD FACSCelesta flow cytometer using a BD High Throughput sampler and subsequent analysis was done using FlowJo software.

[4] = target: T1, human OX40 expressed on cells; assay: flow cytometry, activated human CD4+ T cells, mean of 3 donors; CD4+ T cells
[5] = target: T1, human OX40 expressed on cells; assay: flow cytometry, activated human CD8+ T cells, mean of 3 donors; CD8+ T cells
Protocol: as §1

[6] = target: T1, human OX40 expressed on cells; assay: flow cytometry, activated human CD4+ T cells, without sOX40L, n=3
[7] = target: T2, His-tagged human recombinant FcγRIIIa 176-Val (Sino Biological, cat. no. 10389-H27H1-B) (human, UniProt P08637 17-208); assay: SPR, His-tagged FcγR captured on anti-His chip, antibody injected
T2 construct: also called FcγRIIIa[V]
T2 sequence (P08637 17-208 F176V limits assumed): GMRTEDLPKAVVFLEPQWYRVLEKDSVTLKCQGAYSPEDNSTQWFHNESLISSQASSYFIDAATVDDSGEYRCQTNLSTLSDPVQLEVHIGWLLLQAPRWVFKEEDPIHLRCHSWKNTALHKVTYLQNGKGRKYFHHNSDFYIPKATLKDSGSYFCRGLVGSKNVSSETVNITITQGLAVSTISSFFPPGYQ
Protocol: (§2) Biacore Series S Sensor Chips CM5 (Cytiva, cat. no. 29104988) were covalently coated with anti-His antibody using amine-coupling and His capture kits (Cytiva, cat. no. BR100050 and cat. no. 29234602) according to the manufacturer's instructions. […] After three start-up cycles of HBS-EP+ buffer, antibody samples were injected for 12 cycles per sample to generate binding curves using antibody concentration ranges of 0 to 3,000 nM for FcγRIa and 0 to 10,000 nM for the other FcγRs.
(§3) Dissociation from the anti-His-coated surface was performed by regeneration of the surface using 10 mM Glycine-HCl pH 1.5 (Cytiva, cat. no. BR100354).

[8] = target: His-tagged human recombinant FcγRIa (Sino Biological, cat. no. 10256-H08S-B) (human, UniProt P12314 16-288); assay: as above
Sequence of His-tagged human recombinant FcγRIa (Sino Biological, cat. no. 10256-H08S-B) (P12314 16-288 limits assumed, stated change not applied): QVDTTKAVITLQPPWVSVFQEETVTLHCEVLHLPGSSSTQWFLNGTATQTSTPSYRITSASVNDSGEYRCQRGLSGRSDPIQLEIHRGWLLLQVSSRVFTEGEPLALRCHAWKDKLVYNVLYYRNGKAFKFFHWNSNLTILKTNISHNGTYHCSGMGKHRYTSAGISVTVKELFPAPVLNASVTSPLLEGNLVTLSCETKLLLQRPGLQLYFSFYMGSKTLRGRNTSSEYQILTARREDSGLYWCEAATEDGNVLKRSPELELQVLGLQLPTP
Protocol: as §2, §3

[9] = target: T3, His-tagged human recombinant FcγRIIb (Sino Biological, cat. no. 10259-H27H-B) (human, UniProt P31994 43-217); assay: as above
T3 construct: also called FcγRII2b [sic]
T3 sequence (looked up): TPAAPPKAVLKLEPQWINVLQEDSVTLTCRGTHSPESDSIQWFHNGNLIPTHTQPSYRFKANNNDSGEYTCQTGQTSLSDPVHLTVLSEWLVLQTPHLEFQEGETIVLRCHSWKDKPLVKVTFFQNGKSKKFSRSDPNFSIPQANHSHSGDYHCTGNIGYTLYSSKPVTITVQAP
Protocol: as §2, §3

[10] = target: T4, His-tagged human recombinant FcγRIIa 167-His (Sino Biological, cat. no. 10374-H08H1) (human, UniProt P12318 34-218); assay: as above
T4 construct: also called FcγRIIa[H]
T4 sequence (looked up): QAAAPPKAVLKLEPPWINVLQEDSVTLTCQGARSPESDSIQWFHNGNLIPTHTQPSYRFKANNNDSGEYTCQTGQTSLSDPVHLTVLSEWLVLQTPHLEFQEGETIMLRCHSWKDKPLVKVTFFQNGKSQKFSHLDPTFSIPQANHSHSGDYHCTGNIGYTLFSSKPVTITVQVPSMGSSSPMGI
Protocol: as §2, §3

[11] = target: T5, His-tagged human recombinant FcγRIIIa 176-Phe (Sino Biological, cat. no. 10389-H27H) (human, UniProt P08637 17-208); assay: as above
T5 construct: also called FcγRIIIa[F]
T5 sequence (P08637 17-208 limits assumed): as the sequence (P08637 17-208 F176V limits assumed) above, with V160F counted along it
Protocol: as §2, §3

B1: IgG1-CD134-003-HC6LC2-P329R-E345R (antibody)
heavy: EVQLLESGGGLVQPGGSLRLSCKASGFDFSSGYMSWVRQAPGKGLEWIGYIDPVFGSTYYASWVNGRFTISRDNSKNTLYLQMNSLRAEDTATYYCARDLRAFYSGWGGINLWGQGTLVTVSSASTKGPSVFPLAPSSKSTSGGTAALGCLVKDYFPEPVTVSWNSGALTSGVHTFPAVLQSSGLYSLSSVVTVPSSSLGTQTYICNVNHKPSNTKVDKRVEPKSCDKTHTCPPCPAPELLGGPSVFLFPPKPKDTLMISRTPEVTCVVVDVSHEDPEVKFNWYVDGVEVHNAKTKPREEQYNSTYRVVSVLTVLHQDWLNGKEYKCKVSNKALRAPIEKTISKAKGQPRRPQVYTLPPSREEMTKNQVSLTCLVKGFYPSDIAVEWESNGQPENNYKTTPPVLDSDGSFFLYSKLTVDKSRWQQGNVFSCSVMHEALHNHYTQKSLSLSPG
light: AAVLTQSPSSLSASVGDRVTITCQSSQIVVNNNFLSWYQQKPGKAPKLLIYDASNLASGVPDRFSGSGSGTDFTFTISSLQPEDIATYYCLGGYDDDAENAFGGGTKVEIKRTVAAPSVFIFPPSDEQLKSGTASVVCLLNNFYPREAKVQWKVDNALQSGNSQESVTEQDSKDSTYSLSSTLTLSKADYEKHKVYACEVTHQGLSSPVTKSFNRGEC
notes: humanized; human IgG1 with P329R and E345R (Eu numbering), kappa; also called IgG1-CD134-003-HC6LC2-RR
EC50 [1]: 0.0167 µg/mL | EC50 [2]: 0.0163 µg/mL | EC50 [3]: 0.038 µg/mL and 0.254 nM | EC50 [4]: 0.14 nM | EC50 [5]: 0.159 nM | EC50 [6]: 0.019 µg/mL and 0.13 nM | binding result [7]: no binding (tested: 10,000 nM) | binding result [8]: binds | binding result [9]: no binding (tested: about 5,000 nM) | binding result [10]: no binding (tested: 10,000 nM) | binding result [11]: no binding (tested: about 4,000 nM)
